Reference: publication doi:10.1101/2020.08.21.260711, “Eukaryotic translation initiation factor 5A and its hypusination play an important role in proliferation and differentiation of the human enteric protozoan parasite Entamoeba histolytica” (bioRxiv, 2020)

Target: T1, Entamoeba histolytica deoxyhypusine synthase 1 (EhDHS1) with the amino-terminal His-tag (E. histolytica, UniProt C4LXB8 1-331)
T1 sequence (looked up): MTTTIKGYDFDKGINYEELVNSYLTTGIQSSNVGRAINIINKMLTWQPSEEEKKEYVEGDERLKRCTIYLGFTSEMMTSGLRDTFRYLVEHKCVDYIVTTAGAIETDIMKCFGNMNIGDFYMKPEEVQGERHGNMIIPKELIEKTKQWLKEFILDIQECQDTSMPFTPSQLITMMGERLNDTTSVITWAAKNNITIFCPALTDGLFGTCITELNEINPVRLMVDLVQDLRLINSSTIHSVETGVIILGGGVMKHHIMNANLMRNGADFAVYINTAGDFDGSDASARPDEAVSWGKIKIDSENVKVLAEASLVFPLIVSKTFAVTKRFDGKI
Assay: cell-based or functional assay

B1: Entamoeba histolytica deoxyhypusine synthase 2 (EhDHS2) with the carboxyl-terminal S-tag (enzyme, E. histolytica, UniProt C4M2N7 1-336, looked up)
chain: MSITGEEFAKVTSKVLGESKEYKGEKCIGYDFDNGVDFNKVMEKMKYTGFQALNLGLCIEQVNEMRKNHAKIFLGMSSNIVSSGLREVIHYLVKNKFVDAIVVTAGGIEEDFIKTMHPTLLGDFYFKGKELYPNGYNRIGNLILPNSNYCEFEDWMDPLLLECLKEQNEHGVHWTPSKLVHKMGESINNESSIYYWAAKNNIPVFSPAITDGSIGDMIFFFSYKNEGLVLDLVQDVIKIDEMAFNAEKVGCLLVGAGIAKHHILNAMKRRGGCDYCAMLSTSIECDASDAGSEIAADRTKGFFKPECNPAKVIGDATILLPLIVASTFAQKEEPTK
notes: EhDHS2 gene amplified by PCR, stop codon removed, cloned into AatII-XhoI of pETDuet-EhDHS1; The stop codon was removed to fuse the gene with the C-terminal S-Tag of pETDuet; also called S-tag DHS2; EHI_006030; source: E. coli BL21 (DE3), coexpressed with EhDHS1 from pETDuet-EhDHS1/2, in lysate, then copurified on Ni2+-NTA; not shown: S-tag, C-terminal, kept
DHS enzymatic activity (1,3-diaminopropane production) of coexpressed EhDHS1/EhDHS2 as compared to EhDHS1 alone, with EheIF5A1 or EheIF5A2 as substrates: > 2000 fold
